# Laboratory results reported in publication PMC9804626 (Molecular Microbiology, 2022).
# T1: RodZ‐L‐FLAG^3 (Streptococcus pneumoniae D39)
# T1 sequence (Q8DMX7 1-276, looked up): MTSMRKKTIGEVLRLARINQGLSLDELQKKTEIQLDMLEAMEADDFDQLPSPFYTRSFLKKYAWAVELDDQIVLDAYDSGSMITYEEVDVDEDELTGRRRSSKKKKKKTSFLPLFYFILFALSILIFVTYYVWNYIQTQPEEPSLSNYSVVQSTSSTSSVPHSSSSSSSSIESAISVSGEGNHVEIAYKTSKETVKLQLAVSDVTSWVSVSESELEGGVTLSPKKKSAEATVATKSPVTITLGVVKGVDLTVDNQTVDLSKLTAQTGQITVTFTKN
# T2: RodZ‐FLAG (Streptococcus pneumoniae D39)
# T2 sequence (Q8DMX7 1-276, looked up): T1 sequence (Q8DMX7 1-276, looked up)
# T3: MreC‐L‐F3 (Streptococcus pneumoniae D39, UniProt Q8DMY2 1-272)
# T3 sequence (looked up): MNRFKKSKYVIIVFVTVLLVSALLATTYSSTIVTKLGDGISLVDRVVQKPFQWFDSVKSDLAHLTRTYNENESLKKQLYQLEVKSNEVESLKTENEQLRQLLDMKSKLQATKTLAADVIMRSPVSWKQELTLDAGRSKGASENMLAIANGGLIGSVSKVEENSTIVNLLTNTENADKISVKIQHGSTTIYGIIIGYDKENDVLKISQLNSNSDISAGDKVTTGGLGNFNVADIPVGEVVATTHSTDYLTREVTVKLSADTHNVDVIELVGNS
# B1: aPBP2a (natural protein, UniProt A0A0H2ZMF9 1-731, looked up)
# chain: MKLDKLFEKFLSLFKKETSELEDSDSTILRRSRSDRKKLAQVGPIRKFWRRYHLTKIILILGLSAGLLVGIYLFAVAKSTNVNDLQNALKTRTLIFDREEKEAGALSGQKGTYVELTDISKNLQNAVIATEDRSFYKNDGINYGRFFLAIVTAGRSGGGSTITQQLAKNAYLSQDQTVERKAKEFFLALELSKKYSKEQILTMYLNNAYFGNGVWGVEDASKKYFGVSASEVSLDQAATLAGMLKGPELYNPLNSVEDSTNRRDTVLQNMVAAGYIDKNQETEAAEVDMTSQLHDKYEGKISDYRYPSYFDAVVNEAVSKYNLTEEEIVNNGYRIYTELDQNYQANMQIVYENTSLFPRAEDGTFAQSGSVALEPKTGGVRGVVGQVADNDKTGFRNFNYATQSKRSPGSTIKPLVVYTPAVEAGWALNKQLDNHTMQYDSYKVDNYAGIKTSREVPMYQSLAESLNLPAVATVNDLGVDKAFEAGEKFGLNMEKVDRVLGVALGSGVETNPLQMAQAYAAFANEGLMPEAHFISRIENASGQVIASHKNSQKRVIDKSVADKMTSMMLGTFTNGTGISSSPADYVMAGKTGTTEAVFNPEYTSDQWVIGYTPDVVISHWLGFPTTDENHYLAGSTSNGAAHVFRNIANTILPYTPGSTFTVENAYKQNGIAPANTKRQVQTNDNSQTDDNLSDIRGRAQSLVDEASRAISDAKIKEKAQTIWDSIVNLFR
# B2: MreC (natural protein)
# chain: T3 sequence (looked up)
# B3: DivIVA (natural protein, UniProt Q8CWP9 1-262, looked up)
# chain: MPITSLEIKDKTFGTRFRGFDPEEVDEFLDIVVRDYEDLVRANHDKNLRIKSLEERLSYFDEIKDSLSQSVLIAQDTAERVKQAAHERSNNIIHQAEQDAQRLLEEAKYKANEILRQATDNAKKVAVETEELKNKSRVFHQRLKSTIESQLAIVESSDWEDILRPTATYLQTSDEAFKEVVSEVLGEPIPAPIEEEPIDMTRQFSQAEMEELQARIEVADKELSEFEAQIKQEVETPTPVVSPQVEEEPLLIQLAQCMKNQK
# Columns and labels:
# Test in all cases: co-IP
# [1] = molecular target: MpgA‐F (Streptococcus pneumoniae D39)
# [2] = molecular target: T1, RodZ‐L‐FLAG^3 (Streptococcus pneumoniae D39)
# [3] = molecular target: T2, RodZ‐FLAG (Streptococcus pneumoniae D39)
# [4] = molecular target: MreC‐L‐F3 (Streptococcus pneumoniae D39) (UniProt Q8DMY2)
# [5] = molecular target: PBP1a‐F (Streptococcus pneumoniae D39)
# [6] = molecular target: KhpB‐L‐F3 (Streptococcus pneumoniae D39) (UniProt Q8CY87)
# [7] = molecular target: T3, MreC‐L‐F3
Molecule,ratio of prey protein band/background [1],ratio of prey protein band/background [2],ratio of prey protein band/background [3],ratio of prey protein band/background [4],ratio of prey protein band/background [5],ratio of prey protein band/background [6],ratio of prey protein band/background [7]
FtsA (from UniProt A0A0H2ZPT5 1-457) (natural protein),4.5,–,–,–,–,–,–
FtsW‐L‐GFP (from UniProt A0ACD7PRK7 1-409) (natural protein),–,4.5,–,–,–,–,–
GpsB (natural protein),38,51,24,26,16,–,–
MpgA‐HA (natural protein),–,8.6,–,–,–,–,–
RodZ‐HA^3 (natural protein),–,–,–,–,8.6,1.4,–
StkP (natural protein),34,23,–,14,28,–,–
aPBP1a (natural protein),22,61,11,41,–,–,–
bPBP2b (natural protein),13,63,26,47,13,–,–
bPBP2x (natural protein),12,8.7,4.8,10,15,–,–
B1,–,–,–,–,–,–,20
B2,22,100,24,–,19,–,–
B3,53,18,7.9,–,6.8,–,4.3
